Measured values taken from US20190382474A1 (SURFACE ONCOLOGY, published 2019).
Positions count from the first letter of the chain named.

Experiments:
recombinant human IL-27 [1] = target: T1, recombinant human IL-27 (human, UniProt Q14213 21-229; Q8NEV9 29-243); assay: cell-based or functional assay
T1 sequence 1: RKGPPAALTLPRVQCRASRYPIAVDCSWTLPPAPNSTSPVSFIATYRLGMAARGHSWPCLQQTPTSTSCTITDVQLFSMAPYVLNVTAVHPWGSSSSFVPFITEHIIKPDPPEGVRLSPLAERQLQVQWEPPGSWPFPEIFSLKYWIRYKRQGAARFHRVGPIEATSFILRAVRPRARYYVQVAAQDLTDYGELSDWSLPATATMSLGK
T1 sequence 2: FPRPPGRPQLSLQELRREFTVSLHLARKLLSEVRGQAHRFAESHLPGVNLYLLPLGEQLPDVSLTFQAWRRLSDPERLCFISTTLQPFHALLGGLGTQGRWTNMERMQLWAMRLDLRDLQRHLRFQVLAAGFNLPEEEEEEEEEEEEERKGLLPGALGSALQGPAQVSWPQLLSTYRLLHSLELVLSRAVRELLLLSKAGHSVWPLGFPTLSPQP

recombinant mouse IL-27 [2] = target: T2, recombinant mouse IL-27 (mouse, UniProt O35228 19-228; Q8K3I6 29-234, limits assumed); assay: column 'Affinity mIL-27 (M)'; method not given
T2 construct: also called rodent recombinant IL-27
T2 sequence (looked up) 1: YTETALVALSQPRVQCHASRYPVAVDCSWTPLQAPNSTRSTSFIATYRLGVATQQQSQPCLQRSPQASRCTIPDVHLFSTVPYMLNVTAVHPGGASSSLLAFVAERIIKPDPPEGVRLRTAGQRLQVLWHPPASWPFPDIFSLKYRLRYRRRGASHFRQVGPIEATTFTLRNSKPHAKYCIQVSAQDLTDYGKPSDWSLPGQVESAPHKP
T2 sequence (looked up) 2: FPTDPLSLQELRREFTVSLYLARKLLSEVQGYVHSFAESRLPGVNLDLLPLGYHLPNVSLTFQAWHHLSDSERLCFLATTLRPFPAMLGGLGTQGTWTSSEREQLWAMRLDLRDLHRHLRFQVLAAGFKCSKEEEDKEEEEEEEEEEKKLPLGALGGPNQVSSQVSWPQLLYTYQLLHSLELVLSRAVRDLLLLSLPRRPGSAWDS

recombinant human IL-27 [3] = target: T1, recombinant human IL-27; assay: column 'Affinity hIL-27 (M)', property (i); method not given, paragraph 885 names SPR (BIACORE 2000)
recombinant human IL-27 [4] = target: T1, recombinant human IL-27; assay: cell-based or functional assay; remark: listed apart in the source
recombinant mouse IL-27 [5] = target: T2, recombinant mouse IL-27; assay: cell-based or functional assay
recombinant rat IL-27 [6] = target: T3, recombinant rat IL-27 (rat, UniProt D3ZPW3 29-234; M0RD76 19-228); assay: cell-based or functional assay
T3 sequence (alpha): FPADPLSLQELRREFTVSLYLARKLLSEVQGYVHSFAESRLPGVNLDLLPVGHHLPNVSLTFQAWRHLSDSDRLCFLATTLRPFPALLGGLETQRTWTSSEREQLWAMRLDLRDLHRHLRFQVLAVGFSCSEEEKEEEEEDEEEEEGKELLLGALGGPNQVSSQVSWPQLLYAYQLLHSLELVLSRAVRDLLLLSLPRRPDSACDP
T3 sequence (beta): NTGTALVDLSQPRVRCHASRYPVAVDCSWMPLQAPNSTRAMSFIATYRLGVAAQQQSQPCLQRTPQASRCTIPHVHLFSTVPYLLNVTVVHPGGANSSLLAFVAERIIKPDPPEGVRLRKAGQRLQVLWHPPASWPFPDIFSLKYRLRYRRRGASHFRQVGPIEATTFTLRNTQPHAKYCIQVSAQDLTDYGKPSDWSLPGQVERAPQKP

[7] = target: T4, recombinant cynomolgus monkey IL-27 (cynomolgus monkey, UniProt A0A2K5WPB7 36-244; A0A2K5UBM6 29-244); assay: cell-based or functional assay
T4 sequence 1: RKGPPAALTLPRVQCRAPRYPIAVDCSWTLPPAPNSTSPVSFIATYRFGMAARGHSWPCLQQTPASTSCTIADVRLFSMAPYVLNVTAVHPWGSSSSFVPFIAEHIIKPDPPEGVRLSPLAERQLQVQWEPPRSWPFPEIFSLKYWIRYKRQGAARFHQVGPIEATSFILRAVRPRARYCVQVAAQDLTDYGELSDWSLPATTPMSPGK
T4 sequence 2: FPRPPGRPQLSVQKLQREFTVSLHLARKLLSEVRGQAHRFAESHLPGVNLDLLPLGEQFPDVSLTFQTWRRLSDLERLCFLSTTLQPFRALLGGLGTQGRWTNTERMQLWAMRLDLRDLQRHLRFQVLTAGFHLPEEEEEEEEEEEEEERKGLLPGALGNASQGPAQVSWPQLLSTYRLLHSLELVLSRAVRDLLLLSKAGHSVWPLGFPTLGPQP

p28 subunit of IL-27 = target: T5, p28 subunit of IL-27 (Homo sapiens (Human), UniProt Q8NEV9 29-243, limits assumed); assay: biochemical affinity and specificity studies
T5 construct: the reagent used in the specificity studies is not described; also called IL-27p28
T5 sequence: T1 sequence 2

EBI3 subunit of IL-27 = target: T6, EBI3 subunit of IL-27 (Homo sapiens (Human), UniProt Q14213 21-229, limits assumed); assay: biochemical affinity and specificity studies
T6 construct: the reagent used in the specificity studies is not described
T6 sequence: T1 sequence 1

recombinant human IL-27 [8] = target: T1, recombinant human IL-27; assay: SPR (BIACORE 2000) as the paragraph says; values in FIG. 9
recombinant mouse IL-27 [9] = target: T2, recombinant mouse IL-27; assay: binding kinetics, SRF388 with IL-27 as analyte (instrument not named)
recombinant rat IL-27 [10] = target: T3, recombinant rat IL-27; assay: as above
[11] = target: T4, recombinant cynomolgus monkey IL-27; assay: as above
recombinant human IL-27 [12] = target: T1, recombinant human IL-27; assay: binding kinetics, SRF388 at 1 ug/mL, IL-27 as analyte at 0 to 5.0 ug/mL (instrument not named)
Protocol: The association and dissociation of recombinant human IL-27 at concentrations ranging from 0 to 5.0 μg/mL with an SRF388 concentration of 1 μg/mL were determined.

recombinant human IL-27 [13] = target: T1, recombinant human IL-27; assay: SPR single cycle kinetics, 1:1 model
Protocol: The antibodies were further characterized by surface plasmon resonance (SPR). Kinetic experiments were performed on a Biacore T200 (GE Healthcare, Uppsala, Sweden). All experiments were run at 25° C. with HBS-P+ running buffer (pH 7.4) (GE Healthcare, Little Chalfont, UK) using hIL-27 (R&D Systems, Abingdon, UK). Human IL-27 (hIL-27) antigen was captured on a CM5 chip to ˜16 RU. Immobilization was carried out at a protein concentration of 1 μg/mL in 10 mM acetate buffer pH 5.0. A three point, three-fold dilution range from 3.3 nM to 30 nM of antibody diluted in HBS-P+ buffer without regeneration between each concentration was used. The association phase for the three injections of increasing concentrations of antibody was monitored for 75 seconds each time and a single dissociation phase was measured for 250 seconds following the last injection of antibody. Regeneration of the hIL-27 surface was conducted using a single injection of 2M MgCl₂ for 120 s. Multiple repeats (n=4) of the chimeric antibody were performed throughout the assay to check the stability of the surface and analyte over the kinetic cycles.

recombinant human IL-27 [14] = target: T1, recombinant human IL-27; assay: SPR (Biacore T200), hIL-27 on CM5 chip, single cycle kinetics

B1: SRF381 (antibody, V domains shown)
VH: EVQLVESGGGLVKPGGSLRLSCAASGFTFRSYGMNWVRQAPGKGLEWVSSISSSSSYIYYADSVKGRFTISRDNAKNSLYLQMNSLRAEDTAVYYCARDGGRTSYTATAHNWFDPWGQGTLVTVSS
VL: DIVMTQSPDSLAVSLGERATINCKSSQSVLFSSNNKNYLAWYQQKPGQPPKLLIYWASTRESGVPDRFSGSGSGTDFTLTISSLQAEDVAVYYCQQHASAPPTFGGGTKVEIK
notes: also called SRF381-A; SRF381-B
IC50 of inhibition of phosphorylation of STAT1 in HUT-78 cells (recombinant human IL-27 [1]): 0.08 µg/mL
IC50 of inhibition of phosphorylation of STAT1 in U937 cells (recombinant human IL-27 [1]): 0.081 µg/mL
IC50 of inhibition of phosphorylation of STAT1 in pooled human PBMCs (recombinant human IL-27 [1]): 0.141 µg/mL
Kd (recombinant mouse IL-27 [2]): 0.456 nM
Kd (recombinant human IL-27 [3]): 0.0028 nM

B2: SRF388 (antibody, V domains shown)
VH: B1 VH with S50G, S55G
VL: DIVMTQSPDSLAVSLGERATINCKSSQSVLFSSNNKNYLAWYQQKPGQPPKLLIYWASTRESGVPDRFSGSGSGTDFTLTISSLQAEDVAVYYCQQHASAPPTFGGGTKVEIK
notes: also called SRF388-A; SRF388-B
IC50 of inhibition of phosphorylation of STAT1 in HUT-78 cells (recombinant human IL-27 [1]): 0.095 µg/mL
IC50 of inhibition of phosphorylation of STAT1 in U937 cells (recombinant human IL-27 [1]): 0.096 µg/mL
IC50 of inhibition of phosphorylation of STAT1 in pooled human PBMCs (recombinant human IL-27 [1]): 0.0583 µg/mL
Average IC50, pSTAT1 in peripheral blood T cells, human whole blood (recombinant human IL-27 [4]): 78.4 ng/mL
Average IC50, pSTAT1 in peripheral blood T cells, mouse whole blood (recombinant mouse IL-27 [5]): 1720 ng/mL
Average IC50, pSTAT1 in peripheral blood T cells, rat whole blood (recombinant rat IL-27 [6]): 273 ng/mL
Average IC50, pSTAT1 in peripheral blood T cells, cynomolgus monkey whole blood [7]: 118 ng/mL
binding result (p28 subunit of IL-27): binds
binding result (EBI3 subunit of IL-27): no binding
Kd (recombinant human IL-27 [8]): ≤ 15 nM
Kd (recombinant mouse IL-27 [2]): 0.594 nM
Kd (recombinant mouse IL-27 [9]): 4.43 nM
koff (recombinant mouse IL-27 [9]): 0.000244 s⁻¹
kon (recombinant mouse IL-27 [9]): 55000 M⁻¹ s⁻¹
Kd (recombinant rat IL-27 [10]): 0.0809 nM
koff (recombinant rat IL-27 [10]): 0.000189 s⁻¹
kon (recombinant rat IL-27 [10]): 2.34e+06 M⁻¹ s⁻¹
Kd [11]: 0.0374 nM
koff [11]: 1.19e-05 s⁻¹
kon [11]: 318000 M⁻¹ s⁻¹
Kd (recombinant human IL-27 [12]): 0.00386 nM
koff (recombinant human IL-27 [12]): 1.97e-06 s⁻¹
kon (recombinant human IL-27 [12]): 510000 M⁻¹ s⁻¹
Kd (recombinant human IL-27 [3]): 0.0013 nM

B3: SRF538 (antibody, V domains shown)
VH: QVQLVESGGGVVQPGRSLRLSCAASGFTFSSYGMHWVRQAPGKGLEWVAVIWYDGSNKYYADSVKGRFTISRDNSKNTLYLQMNSLRAEDTAVYYCARGAPEYVDVWGQGTMVTVSS
VL: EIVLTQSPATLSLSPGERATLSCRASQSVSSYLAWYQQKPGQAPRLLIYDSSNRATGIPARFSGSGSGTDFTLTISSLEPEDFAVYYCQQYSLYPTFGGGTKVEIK
notes: also called SRF538-A; SRF538-B
Kd (recombinant human IL-27 [8]): ≤ 15 nM
Kd (recombinant mouse IL-27 [2]): 182 nM
Kd (recombinant human IL-27 [3]): 8.93 nM

B4: Ab7.6 (antibody, human IgG1, kappa, V domains shown)
VH: EVKLVESGGGLVQPGGSLRLSCAASGFTFTSYSMSWVRQAPGKGLEWVAYISYDGGSAYYPDTVKGRFTISRDNSKKTLYLQMSSLKSEDTAMYYCARHGDYDDDDAMDYWGQGTSVTVSS
VL: DIQMTQSPSSLSASVGDRVTITCRASENIYSYLAWYQQKPGKAPKLLVYNAETLTEGVPSRFSGSGSGTDFTLTISSLQPEDFATYYCQHHYGTPLTFGQGTKLEIKR
notes: human IgG1/kappa
binding result (recombinant human IL-27 [13]): binds

B5: Ab7.15 (antibody, human IgG1, kappa, V domains shown)
VH: B4 VH with S84N, K87R, S88A, M93V, S116L
VL: B4 VL with A34N
notes: human IgG1/kappa; also called Ab7-VL4 humanized variant
binding result (recombinant human IL-27 [14]): no binding (tested: 3.3 nM to 30 nM of antibody)

B6: Ab7.19 (antibody, human IgG1, kappa, V domains shown)
VH: B4 VH with K3Q, K77N, S84N, K87R, S88A, M93V, S116L
VL: B4 VL with A34N
notes: as for B5
binding result (recombinant human IL-27 [14]): no binding (tested: 3.3 nM to 30 nM of antibody)

B7: Ab7.23 (antibody, human IgG1, kappa, V domains shown)
VH: B4 VH with K3Q, A49S, K77N, S84N, K87R, S88A, M93V, S116L
VL: B4 VL with A34N
notes: as for B5
binding result (recombinant human IL-27 [14]): no binding (tested: 3.3 nM to 30 nM of antibody)

B8: Ab7.7 (antibody, human IgG1, kappa, V domains shown)
VH: B4 VH
VL: B4 VL with A34N
notes: as for B5
binding result (recombinant human IL-27 [14]): no binding (tested: 3.3 nM to 30 nM of antibody)

B9: Ab7.11 (antibody, human IgG1, kappa, V domains shown)
VH: B4 VH with K3Q, K77N, S116L
VL: B4 VL with A34N
notes: as for B5
binding result (recombinant human IL-27 [14]): no binding (tested: 3.3 nM to 30 nM of antibody)
